Results as given in the supplement of paper PMC10126150.
± gives the standard deviation of the averaged measurements.

Tested on: ATP
Experiment: switch fluorescence ratio, 500 uM ATP over buffer (Cy3 cluster intensity, sum of 5 cycles each) (fold (ratio)); higher = stronger signal-on switching upon ATP binding; sequences stand for … in TCGTCGGCAGCGTCAGATGTGTATAAGAGACAGTTTTTTTTTTTTTTTTTTTTTTTTT…TC
Conditions: aptamer strand: ATP DNA aptamer (quencher-CACCTGGGGGAGTATTGCGGAGGAAGG + anchor), 100 nM annealed; ATP concentration: 500 uM
Summary of the method: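 For every switch-domain sequence, the fluorescence ratio is the mean of per-cluster values, each being summed target-cycle Cy3 intensity over summed buffer-cycle Cy3 intensity. Clusters outside 100-1000 RFU were excluded. On a modified Illumina MiSeq flow-cell, the Cy3-labelled switching-strand clusters were annealed to 100 nM quencher-labelled ATP aptamer, imaged in selection buffer and then after 15 min with 500 uM ATP at 22 °C. Five such cycles were run, with NaOH stripping and re-annealing between them.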
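Further: ATP exposure 15 min at 22 °C before imaging.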

Row | Sequence | switch fluorescence ratio
1 | TGGGGACGGT | 1.01 ± 0.012
2 | TGAAGGCCTT | 0.9953 ± 0.0011
3 | GGGAGTAGCG | 0.997 ± 0.022
4 | GCGAACAACT | 1.014 ± 0.0087
5 | CTTCTAGGCA | 1.04 ± 0.032
6 | CGGGGGGTTC | 1 ± 0.019
7 | CCGTAATGTG | 1.5 ± 0.16
8 | TTGCTGTTGC | 1.001 ± 0.0095
9 | CCGAATAATT | 1.08 ± 0.011
10 | AATCAAGGCG | 1.03 ± 0.1
11 | CAGTAAATGT | 0.984 ± 0.054
12 | ATATGGTGGT | 1.03 ± 0.023
13 | GCTGAAGGTT | 1.25 ± 0.36
14 | CATTTAGGAT | 0.985 ± 0.018
15 | TTAGCGTGCG | 0.953 ± 0.054
16 | GGCACCTTAT | 1.06 ± 0.034
17 | AAAGTGGTTG | 0.984 ± 0.024
18 | GGGGCAGTAG | 1.04 ± 0.046
19 | TAAGAGTAAT | 0.985 ± 0.042
20 | TTATGATGGT | 0.992 ± 0.018
21 | TTTTGCTGAC | 1.14 ± 0.1
22 | CGCGGTGGGA | 1.02 ± 0.026
23 | ATTAAATTTT | 1.01 ± 0.032

Row | Sequence | switch fluorescence ratio
24 | CGGGGGAAAC | 0.977 ± 0.015
25 | GCTGAATAAG | 0.9815 ± 0.0088
26 | ATAACGGGAT | 1.26 ± 0.42
27 | TTTGCACCAT | 1.03 ± 0.017
28 | CCGGTGTTTG | 0.987 ± 0.021
29 | GTTATAAGTC | 1.01 ± 0.026
30 | GTTGGGTTTG | 0.999 ± 0.026
31 | ATTTAAGGTA | 1.01 ± 0.024
32 | AGAGGGGGTT | 0.971 ± 0.035
33 | CGGTTGTGCG | 0.969 ± 0.025
34 | GGATATGGCA | 1.01 ± 0.037
35 | CACGGGGCGC | 0.977 ± 0.046
36 | TATATATCAA | 1.003 ± 0.005
37 | AAGCACCCGT | 1.12 ± 0.058
38 | GGAGGAAGAT | 1.047 ± 0.0093
39 | TTTGTAACAC | 1.25 ± 0.36
40 | CGGGGCTAGG | 0.992 ± 0.017
41 | GTCAGAAATG | 0.982 ± 0.013
42 | CAGCGGAGGT | 1.025 ± 0.0052
43 | TCGGACTAGG | 1 ± 0.031
44 | GATATCCATG | 0.972 ± 0.014
45 | GCACCTTGAG | 1.001 ± 0.0014
46 | GAGGGGGGAC | 1.02 ± 0.032

Row | Sequence | switch fluorescence ratio
47 | TTTGGGGTAG | 0.977 ± 0.015
48 | CAGTTTACGT | 0.983 ± 0.023
49 | GTTGTGAGAG | 0.999 ± 0.054
50 | TGGGATGTTG | 1 ± 0.052
51 | CGGGTTTTGG | 1.01 ± 0.034
52 | CAGGGTTTTA | 1.006 ± 0.0055
53 | CGGGATTGGT | 1.01 ± 0.13
54 | TTATAGGAAC | 1.02 ± 0.013
55 | AAAGCCGAAT | 0.99 ± 0.023
56 | TTTTATGAGG | 0.973 ± 0.03
57 | TTTGAAGCAG | 1.08 ± 0.068
58 | TGGTACTTGT | 1.01 ± 0.027
59 | AAAGGAAAGT | 1.01 ± 0.02
60 | TTGAGGGGGG | 1.01 ± 0.048
61 | ATGGATGTTA | 0.978 ± 0.032
62 | GGAGAGTCGG | 0.977 ± 0.035
63 | TGAGGCACGG | 1.05 ± 0.056
64 | TTTTACTTAC | 1.25 ± 0.059
65 | GCTGTAAGGG | 0.988 ± 0.028
66 | TGTGGGATAG | 0.979 ± 0.029
67 | CAAGGGTGGC | 1.003 ± 0.0061
68 | TTTGTTACAG | 1 ± 0.031
69 | TGGTATGGTT | 0.996 ± 0.011

Row | Sequence | switch fluorescence ratio
70 | CGTTGTTTTG | 0.9848 ± 0.0091
71 | TGAAGATCGC | 1.02 ± 0.018
72 | GGTGATTTTA | 1 ± 0.025
73 | TTTCATATTT | 1.03 ± 0.014
74 | ATGGTTTCTT | 1 ± 0.034
75 | GTTTTCGGTT | 1.013 ± 0.0056
76 | GTTCGGTGGA | 1 ± 0.041
77 | TCGTTATGTG | 0.9829 ± 0.0085
78 | TTAGAGGGA | 1 ± 0.047
79 | AGGTTATTAT | 0.999 ± 0.029
80 | GGGCTGGGTA | 0.993 ± 0.018
81 | TATAGATTTT | 1.003 ± 0.0078
82 | TTTGTTTGCT | 0.989 ± 0.025
83 | CCGGTGTTTT | 1.06 ± 0.041
84 | CTGATTTTAG | 1.02 ± 0.071
85 | TAATTAATTT | 1.02 ± 0.025
86 | TAATTCGGCA | 0.995 ± 0.0044
87 | ATCTGCGGGA | 1.05 ± 0.042
88 | CCTTACCTGT | 1.07 ± 0.065
89 | GTCTAGAAAG | 0.985 ± 0.016
90 | TGAGTTAAGG | 0.986 ± 0.012
91 | CCTGGCGGCT | 1.06 ± 0.018
92 | TGGAAGGGG | 1.02 ± 0.015

Row | Sequence | switch fluorescence ratio
93 | GGGTTTTGTG | 1.01 ± 0.022
94 | AGGTCGGGCG | 0.982 ± 0.026
95 | GGATGCATTG | 0.972 ± 0.011
96 | TGAGGTACGG | 1.01 ± 0.029
97 | AAGTAGTTAC | 1.05 ± 0.042
98 | CGGGACGGGG | 0.967 ± 0.022
99 | TTCCGATTCG | 1.09 ± 0.035
100 | AGTGCGGTGG | 1 ± 0.059
101 | GATTGTTGTA | 0.979 ± 0.014
102 | TGGGGCGTGC | 1.06 ± 0.065
103 | TCAAGTGTTT | 0.993 ± 0.015
104 | GGGTTTGGAT | 0.984 ± 0.025
105 | TTTAGGCCGA | 0.99 ± 0.043
106 | GAGGGTGTGG | 1.02 ± 0.022
107 | TTTTTTTGTC | 1.02 ± 0.028
108 | ATCCGGGGTT | 1.06 ± 0.057
109 | CTGTAAGTCT | 0.989 ± 0.011
110 | CGGTTTGCGT | 0.9748 ± 0.0029
111 | CCGTGTAAGC | 1.343 ± 0.0024
112 | AGAAGGCGGG | 0.985 ± 0.029
113 | TTTTTAGGGG | 1.02 ± 0.055
114 | GAGTGAGCTT | 0.966 ± 0.046
115 | CAGGCTTTTT | 1 ± 0.029

Row | Sequence | switch fluorescence ratio
116 | CGTAGTTTAG | 1.05 ± 0.027
117 | AGAATGGAGA | 1 ± 0.013
118 | ACGAGGGGGG | 1.02 ± 0.02
119 | ATAGGCATCA | 1.18 ± 0.3
120 | GCAACATTCT | 1.03 ± 0.022
121 | TTCCGGAGGC | 1.22 ± 0.28
122 | AGAAGGAGGT | 0.9874 ± 0.0089
123 | TTTCTCGTTG | 0.9908 ± 0.0074
124 | GAAGGTTATG | 1 ± 0.015
125 | TAGTTTTTTA | 1.02 ± 0.015
126 | TTCTGGGGGG | 0.991 ± 0.027
127 | TAGGGGGAAG | 0.9792 ± 0.0033
128 | TATTTTCATT | 0.999 ± 0.015
129 | AACTAGGTGT | 1.15 ± 0.22
130 | TGGGTAACGG | 0.999 ± 0.0039
131 | CAAAGGTTGC | 1 ± 0.013
132 | TAAAAAAGAT | 0.978 ± 0.017
133 | GGGGGTGAAC | 0.98 ± 0.029
134 | AGGGGTGGTA | 0.981 ± 0.043
135 | AAGGTTGGGG | 0.994 ± 0.017
136 | CAGGAGACGA | 1.03 ± 0.025
137 | GGGGGGGAGT | 0.995 ± 0.02
138 | GAATATGTAG | 0.965 ± 0.044

Row | Sequence | switch fluorescence ratio
139 | GTTATTTTCC | 1.01 ± 0.071
140 | CGGGGAATAG | 1.16 ± 0.094
141 | TAATTATGGG | 1.04 ± 0.056
142 | TGGAGGGGCT | 0.987 ± 0.046
143 | AGATTGATGG | 0.9848 ± 0.0026
144 | AAACGCGGAC | 3.45 ± 0.49
145 | GGGGGGCTGC | 0.978 ± 0.036
146 | GGAGTTTCGG | 1 ± 0.031
147 | TAGTGTAGGT | 1.03 ± 0.02
148 | GGTTCTTAGT | 0.978 ± 0.05
149 | TGGCGGTAGT | 1.06 ± 0.056
150 | CGCATTTAGT | 1.12 ± 0.0063
151 | CGGAGTACAG | 1.09 ± 0.11
152 | ATGATGTGGA | 1.01 ± 0.077
153 | GGCCGAGGGG | 1.01 ± 0.03
154 | TTGAGGATCA | 1.02 ± 0.029
155 | GTAGGGGAAG | 1.01 ± 0.017
156 | TTGGACATGT | 0.989 ± 0.027
157 | TAGCGAAACT | 1.14 ± 0.032
